Results taken from patent publication US20200255508A1 (AbbVie / Abbott, published 2020).

B1: A10.L45 (antibody, V domains shown)
VH: EVQLVESGGGLVKSGGSLRLSCAASGFTFRSHWMSWVRQAPGKGLEWVAIISYDGSNKYSADSVKGRFTISRDNSKNTLYLQLNSLRAEDTAVYYCAKAGGGNVGFDIWGQGTMVTVSS
VL: SYELTQPPSVSVSPGQTASITCSADELGTQYVSWYQQKPGQSPVLVIYQDATRPSGIPERFSGSNSGNTATLTISGTQAMDEADYYCQAWDRSGVVFGGGTKLTVL
B2: A10.K30 (antibody, V domains shown)
VH: EVQLVESGGGVVQPGGSLRLSCAASGFTFGNHWMSWVRQAPGKGLEWVADISSDGRYKYYADSVKGRFTISRDNSKNTLYLQLNSLRAEDTAVYYCAKAGGGNVGFDIWGQGTMVTVSS
VL: SYELTQPPSVSVSPGQTASITCSADKLGTKYVSWYQQKPGQSPVLVIYQDAKRPSGIPERFSGSNSGNTATLTISGTQTMDEADYLCQSWDRSDVVFGGGTKLTVL
B3: A10.L73 (antibody, V domains shown)
VH: EVQLVESGGGLVKSGGSLRLSCAASGFTFRSHWMSWVRQAPGKGLEWVAIISYDGSNKYSADSVKGRFTISRDNSKNTLYLQLNSLRAEDTAVYYCAKAGGGNVGFDIWGQGTMVTVSS
VL: SYELTQPPSVSVSPGQTASITCSGDNLGSQYVSWYQQKPGQSPVLVIYQDAQRPSGIPERFSGSNSGNTATLTISGTQAMDEADYYCQAWDRSGVVFGGGTKLTVL
B4: E9.13 (antibody, V domains shown)
VH: EVQLQESGPGLVKPSETLSLTCTVSGGSISSSSYYWGWIRQPPGKGLEWIGDIYYTGSTYYNPSLKSRVTISVDTSKNQFSLKLSSVTAADTAVYYCAREDVILRGGSDYWGQGTLVTVSS
VL: SYELTQPPSVSVSPGQTASITCSGDTLGDKYVSWYQQKPGQSPVLVIYEDSERPSGIPERFSGSNSGDTATLTISGTQPMDEADYYCQAWDSETGVFGSGTKVTVL
notes: also called DLL4-E9-13 hIgG1/L
B5: E9.65 (antibody, V domains shown)
VH: EVQLQESGPGLVKPSETLSLTCTVSGGSIRNSRYHWGWIRQPPGKGLEWIGDIYYTGSTYYNPSLKGRVTISVDTSKNQFSLKLSSVTAADTAVYYCAREDVILRGGSDYWGQGTLVTVSS
VL: SYELTQPPSVSVSPGQTASITCSGQRLGDKYASWYQQKPGQSPVLVIYEDSKRPSGIPERFSGSNSGDTATLTISGTQPMDEADYYCQAWDRDTGVFGYGTKVTVL
B6: E9.18 (antibody, V domains shown)
VH: EVQLQESGPGLVKPSETLSLTCTVSGGSISSSGYYWGWIRQPPGKGLEWIGDINYAGSTYYNPSLKSRVTISVDTSKNQFSLKLSSVTAADTAVYYCAREDVILRGGSDYWGQGTLVTVSS
VL: SYELTQPPSVSVSPGQTASITCSGQRLGDKYASWYQQKPGQSPVLVIYEDSKRPSGIPERFSGSNSGDTATLTISGTQPMDEADYYCQAWDRDTGVFGYGTKVTVL
notes: also called DLL4-E9-18 hIgG1/L
B7: E9.14 (antibody, V domains shown)
VH: EVQLQESGPGLVKPSETLSLTCTVSGGSISNSRYHWGWIRQSPGKGLEWIGDIYYTGSTYYNPSLKSRVTISVDTSKNQFSLKLSSVTAEDTAVYYCAREDVILRGGSDYWGQGTLVTVSS
VL: SYELTQPPSVSVSPGQTASITCSGQRLGDKYASWYQQKPGQSPVLVIYEDSKRPSGIPERFSGSNSGDTATLTISGTQPMDEADYYCQAWDRDTGVFGYGTKVTVL
notes: also called DLL4-E9-14 hIgG1/L

Key:
[1] = molecular target: T1, human DLL4 extracellular domain (human, UniProt Q9NR61 27-529); assay: Biacore SPR;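 further: surface plasmon resonance on a Biacore instrument, antibodies captured on immobilized anti-human Fc, purified recombinant DLL4 extracellular domain injected as analyte, binding followed over time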
T1 construct: extracellular domain; coated on plates in the sVEGFR1 assay; also called huDLL4 ECD; Human DLL4 ECD

[2] = molecular target: T2, mouse DLL4 extracellular domain (mouse, UniProt Q9JI71 27-532); assay: Biacore SPR;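 further: surface plasmon resonance on a Biacore instrument, antibodies captured on immobilized anti-human Fc, purified recombinant DLL4 extracellular domain injected as analyte, binding followed over time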
T2 construct: extracellular domain; also called muDLL4 ECD; Mouse DLL4 ECD
T2 sequence (Q9JI71 27-532): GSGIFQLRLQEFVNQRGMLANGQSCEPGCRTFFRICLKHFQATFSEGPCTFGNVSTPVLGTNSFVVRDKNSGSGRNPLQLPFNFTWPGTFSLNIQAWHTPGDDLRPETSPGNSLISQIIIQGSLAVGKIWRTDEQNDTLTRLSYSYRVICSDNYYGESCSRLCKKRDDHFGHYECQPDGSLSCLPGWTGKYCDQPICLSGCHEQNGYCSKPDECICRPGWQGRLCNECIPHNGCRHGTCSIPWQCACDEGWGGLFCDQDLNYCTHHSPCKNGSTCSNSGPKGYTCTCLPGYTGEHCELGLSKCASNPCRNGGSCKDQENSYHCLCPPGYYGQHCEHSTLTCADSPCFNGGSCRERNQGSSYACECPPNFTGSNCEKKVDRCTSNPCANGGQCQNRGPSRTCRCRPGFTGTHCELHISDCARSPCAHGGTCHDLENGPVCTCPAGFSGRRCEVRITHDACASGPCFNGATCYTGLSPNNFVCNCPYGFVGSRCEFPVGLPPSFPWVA

| Binder | Kd [1] | koff [1] | kon [1] | binding result [2] | Kd [2] | koff [2] | kon [2] |
| --- | --- | --- | --- | --- | --- | --- | --- |
| B1 | 0.72 nM | 3.16e-05 s⁻¹ | 44000 M⁻¹ s⁻¹ | no binding |  |  |  |
| B2 | 7.69 nM | 0.000274 s⁻¹ | 35700 M⁻¹ s⁻¹ | no binding |  |  |  |
| B3 | 0.19 nM | 9.5e-06 s⁻¹ | 50700 M⁻¹ s⁻¹ | no binding |  |  |  |
| B4 | 1.33 nM | 4.97e-05 s⁻¹ | 37400 M⁻¹ s⁻¹ |  | 4.89 nM | 0.000212 s⁻¹ | 43400 M⁻¹ s⁻¹ |
| B5 | 14 nM | 0.000363 s⁻¹ | 25900 M⁻¹ s⁻¹ |  | 5.27 nM | 0.000136 s⁻¹ | 25700 M⁻¹ s⁻¹ |
| B6 | 1.18 nM | 1.84e-05 s⁻¹ | 15700 M⁻¹ s⁻¹ |  | 0.73 nM | 1.68e-05 s⁻¹ | 23200 M⁻¹ s⁻¹ |
| B7 | 9.14 nM | 0.000365 s⁻¹ | 39900 M⁻¹ s⁻¹ |  | 3.49 nM | 0.000136 s⁻¹ | 38900 M⁻¹ s⁻¹ |
